Laboratory results reported in patent US20160039947A1 (Eli Lilly, published 2016).

Target: T1, hHGFR(cMet)-Fc (human, UniProt P08581 25-932)
T1 construct: Coated in the sandwich ELISA; second injection in SPR; not shown: Fc part of the bought fusion protein
Test: sandwich ELISA: hHGFR(cMet)-Fc coated, BsAb, hAxl-Fc-biotin detection
Method: Two sandwich ELISAs are developed, one for detecting anti-HER-2/anti-EGFR BsAb activity and one for detecting anti-cMET/anti-Axl BsAb activity. For both ELISAs, clear 96-well round bottom high binding Immulon microtiter plates (Greiner bio-one, cat#650061) are coated overnight at 2-8° C. with 50 μL/well 1 μg/mL hHER-2-Fc or 1 μg/mL hHGFR(cMet)-Fc (both from R&D systems) in a 50 mM Na₂CO₃ pH 8 buffer. The plates are washed 4 times with PB ST and blocked with 100 μL/well casein buffer (Pierce) for 1 hr at 37° C. The plates are then washed 4 times with PBST and the parental IgG controls or BsAb IgG test articles are added at 50 μL/well and 5 μg/mL and serially diluted 1:3 down the plate. The test articles are incubated on the plate for 1 hr at 37° C. The plates are then washed 4 times with PBST and 50 μL/well 0.2 μg/mL hEGFR-Fc-biotin or hAxl-Fc-biotin (both from R&D systems) is added for 1 hr at 37° C. The plates are then washed 4 times with PBST followed by the addition of a 50 μL/well streptavidin-HRP (Jackson Labs) diluted 1:2000 in PBST. The streptavidin-HRP is incubated in each well for 1 hr at 37° C. The plates are then washed 4 times with PBST and 100 μL/well 1-component TMB substrate is added (KPL laboratories). After approximately 10 minutes, […] 1% H₃PO₄ (in H₂O) is added to each plate to quench the reaction. Absorbance (450 nm) of every well in the plates is read using a SpectraMax UV plate reader (Molecular Devices). Biotin-labeling of the hEGFR-Fc and hAxl-Fc proteins is performed using EZ-Link Sulfo-NHS-LC-Biotin (Thermo Scientific) according to the manufacturer's protocol.

T1 sequence (P08581 25-932): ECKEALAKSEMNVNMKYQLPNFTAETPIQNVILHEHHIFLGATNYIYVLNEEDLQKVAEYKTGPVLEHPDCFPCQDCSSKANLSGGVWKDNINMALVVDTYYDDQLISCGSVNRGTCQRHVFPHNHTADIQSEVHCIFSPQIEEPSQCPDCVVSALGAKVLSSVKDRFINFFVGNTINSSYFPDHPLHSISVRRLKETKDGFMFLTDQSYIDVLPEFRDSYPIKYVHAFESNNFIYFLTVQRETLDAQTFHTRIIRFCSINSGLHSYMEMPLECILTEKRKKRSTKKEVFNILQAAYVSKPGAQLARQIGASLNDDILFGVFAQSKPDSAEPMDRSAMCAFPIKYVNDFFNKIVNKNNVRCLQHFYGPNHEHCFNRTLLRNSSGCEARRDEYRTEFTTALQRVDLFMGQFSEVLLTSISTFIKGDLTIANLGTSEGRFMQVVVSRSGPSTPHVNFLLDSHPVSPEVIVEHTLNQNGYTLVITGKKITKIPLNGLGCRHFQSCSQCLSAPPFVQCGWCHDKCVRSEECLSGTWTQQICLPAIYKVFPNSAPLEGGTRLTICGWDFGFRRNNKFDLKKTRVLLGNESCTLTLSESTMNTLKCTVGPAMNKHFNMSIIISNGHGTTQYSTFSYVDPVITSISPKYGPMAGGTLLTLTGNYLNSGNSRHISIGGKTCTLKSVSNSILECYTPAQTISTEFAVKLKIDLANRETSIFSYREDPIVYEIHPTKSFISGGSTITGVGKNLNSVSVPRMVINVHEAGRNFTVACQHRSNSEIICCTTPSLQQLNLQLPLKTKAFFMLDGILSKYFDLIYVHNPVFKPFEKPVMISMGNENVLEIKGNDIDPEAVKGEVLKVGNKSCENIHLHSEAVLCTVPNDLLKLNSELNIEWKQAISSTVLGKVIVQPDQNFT

| binding result | Binder |
| --- | --- |
| binds | MAControl λκ (anti-cMET/anti-Axl IgG BsAb without Fab redesigns) (bispecific antibody) heavy 1: EVQLVESGGGLVQPGGSLRLSCAASGYTFTSYWLHWVRQAPGKGLEWVGMIDPSNSDTRFNPNFKDRFTISADTSKNTAYLQMNSLRAEDTAVYYCATYRSYVTPLDYWGQGTLVTVSSASTKGPSVFPLAPSSKSTSGGTAALGCLVKDYFPEPVTVSWNSGALTSGVHTFPAVLQSSGLYSLSSVVTVPSSSLGTQTYICNVNHKPSNTKVDKKVEPKSCDKTHTCPPCPAPELLGGPSVFLFPPKPKDTLMISRTPEVTCVVVDVSHEDPEVKFNWYVDGVEVHNAKTKPREEQYQSTYRVVSVLTVLHQDWLNGKEYKCKVSNKALPAPIEKTISKAKGQPREPQVYTLPPSRDELTKNQVSLTCLVKGFYPSDIAVEWESNGQPENNYDTTPPVLDSDGSFFLYSDLTVDKSRWQQGNVFSCSVMHEALHNHYTQKSLSLSPG light 1: DIQMTQSPSSLSASVGDRVTITCKSSQSLLYTSSQKNYLAWYQQKPGKAPKLLIYWASTRESGVPSRFSGSGSGTDFTLTISSLQPEDFATYYCQQYYAYPWTFGQGTKVEIKGQPKAAPSVTLFPPSSEELQANKATLVCLISDFYPGAVTVAWKADSSPVKAGVETTTPSKQSNNKYAASSYLSLTPEQWKSHRSYSCQVTHEGSTVEKTVAPTEC heavy 2: EVQLVESGGGLVQPGGSLRLSCAASGFSLSGSWIHWVRQAPGKGLEWVGWINPYRGYAYYADSVKGRFTISADTSKNTAYLQMNSLRAEDTAVYYCAREYSGWGGSSVGYAMDYWGQGTLVTVSSASTKGPSVFPLAPSSKSTSGGTAALGCLVKDYFPEPVTVSWNSGALTSGVHTFPAVLQSSGLYSLSSVVTVPSSSLGTQTYICNVNHKPSNTKVDKKVEPKSCDKTHTCPPCPAPELLGGPSVFLFPPKPKDTLMISRTPEVTCVVVDVSHEDPEVKFNWYVDGVEVHNAKTKPREEQYQSTYRVVSVLTVLHQDWLNGKEYKCKVSNKALPAPIEKTISKAKGQPREPQVYTLPPSRKELTKNQVSLTCLVKGFYPSDIAVEWESNGQPENNYKTTPPVLKSDGSFFLYSKLTVDKSRWQQGNVFSCSVMHEALHNHYTQKSLSLSPG light 2: DIQMTQSPSSLSASVGDRVTITCRASQDVSTAVAWYQQKPGKAPKLLIYSASFLYSGVPSRFSGSGSGTDFTLTISSLQPEDFATYYCQQSYTTPPTFGQGTKVEIKRTVAAPSVFIFPPSDEQLKSGTASVVCLLNNFYPREAKVQWKVDNALQSGNSQESVTEQDSKDSTYSLSSTLTLSKADYEKHKVYACEVTHQGLSSPVTKSFNRGEC |
| binds | MADesign κλ (anti-cMET/anti-Axl IgG BsAb with Fab redesigns) (bispecific antibody, also called MA Designs) heavy 1: EVQLVESGGGLVQPGGSLRLSCAASGYTFTSYWLHWVRKAPGKGLEWVGMIDPSNSDTRFNPEFKDRFTISADTSKNTAYLQMNSLRAEDTAVYYCATYRSYVTPLDYWGQGTLVTVSSASTKGPSVFPLAPSSKSTSGGTAALGCLVKDYFPEPVTVSWNSGALTSGVATGPAVLQSSGLYSLSSVVTVPSSSLGTQTYICNVNHKPSNTKVDKKVEPKSCDKTHTCPPCPAPELLGGPSVFLFPPKPKDTLMISRTPEVTCVVVDVSHEDPEVKFNWYVDGVEVHNAKTKPREEQYQSTYRVVSVLTVLHQDWLNGKEYKCKVSNKALPAPIEKTISKAKGQPREPQVYTLPPSRDELTKNQVSLTCLVKGFYPSDIAVEWESNGQPENNYDTTPPVLDSDGSFFLYSDLTVDKSRWQQGNVFSCSVMHEALHNHYTQKSLSLSPG light 1: RIQMTQSPSSLSASVGDRVTITCKSSQSLLYTSSQKNYLAWYQDKPGKAPKLLIYWASTRESGVPSRFSGSGSGTDFTLTISSLQPEDFATYYCQQYYAYPWTFGQGTKVEIKRTVAAPSVFIFPPSDEQLKSGTASVVCYLNNFYPREAKVQWKVDNALQSGNSQESVTEQDSKDSTYSLWSTLTLSKADYEKHKVYACEVTHQGLSSPVTKSFNRGEC heavy 2: EVQLVESGGGLVQPGGSLRLSCAASGFSLSGSWIHWVRYAPGKGLEWVGWINPYRGYAYYADSVKGRFTISADTSKNTAYLQMNSLRAEDTAVYYCAREYSGWGGSSVGYAMDYWGQGTLVTVSSASTKGPSVFPLAPSSKSTSGGTAALGCLVKDYFPEPVTVSWNSGALTSGVHTFPAVLQSSGLYSLSSVVTVPSSSLGTQTYICNVNHKPSNTKVDKKVEPKSCDKTHTCPPCPAPELLGGPSVFLFPPKPKDTLMISRTPEVTCVVVDVSHEDPEVKFNWYVDGVEVHNAKTKPREEQYQSTYRVVSVLTVLHQDWLNGKEYKCKVSNKALPAPIEKTISKAKGQPREPQVYTLPPSRKELTKNQVSLTCLVKGFYPSDIAVEWESNGQPENNYKTTPPVLKSDGSFFLYSKLTVDKSRWQQGNVFSCSVMHEALHNHYTQKSLSLSPG light 2: DIQMTQSPSSLSASVGDRVTITCRASQDVSTAVAWYQRKPGKAPKLLIYSASFLYSGVPSRFSGSGSGTDFTLTISSLQPEDFATYYCQQSYTTPPTFGQGTKVEIKGQPKAAPSVTLFPPSSEELQANKATLVCLISDFYPGAVTVAWKADSSPVKAGVETTTPSKQSNNKYAASSYLSLTPEQWKSHRSYSCQVTHEGSTVEKTVAPTEC |
| binds | MADesign λκ (anti-cMET/anti-Axl IgG BsAb with Fab redesigns) (bispecific antibody, also called MA Designs) heavy 1: EVQLVESGGGLVQPGGSLRLSCAASGYTFTSYWLHWVRKAPGKGLEWVGMIDPSNSDTRFNPEFKDRFTISADTSKNTAYLQMNSLRAEDTAVYYCATYRSYVTPLDYWGQGTLVTVSSASTKGPSVFPLAPSSKSTSGGTAALGCLVKDYFPEPVTVSWNSGALTSGVATGPAVLQSSGLYSLSSVVTVPSSSLGTQTYICNVNHKPSNTKVDKKVEPKSCDKTHTCPPCPAPELLGGPSVFLFPPKPKDTLMISRTPEVTCVVVDVSHEDPEVKFNWYVDGVEVHNAKTKPREEQYQSTYRVVSVLTVLHQDWLNGKEYKCKVSNKALPAPIEKTISKAKGQPREPQVYTLPPSRDELTKNQVSLTCLVKGFYPSDIAVEWESNGQPENNYDTTPPVLDSDGSFFLYSDLTVDKSRWQQGNVFSCSVMHEALHNHYTQKSLSLSPG light 1: RIQMTQSPSSLSASVGDRVTITCKSSQSLLYTSSQKNYLAWYQDKPGKAPKLLIYWASTRESGVPSRFSGSGSGTDFTLTISSLQPEDFATYYCQQYYAYPWTFGQGTKVEIKGQPKAAPSVTLFPPSSEELQANKATLVCYISDFYPGAVTVAWKADSSPVKAGVETTTPSKQSNNKYAAWSYLSLTPEQWKSHRSYSCQVTHEGSTVEKTVAPTEC heavy 2: EVQLVESGGGLVQPGGSLRLSCAASGFSLSGSWIHWVRYAPGKGLEWVGWINPYRGYAYYADSVKGRFTISADTSKNTAYLQMNSLRAEDTAVYYCAREYSGWGGSSVGYAMDYWGQGTLVTVSSASTKGPSVFPLAPSSKSTSGGTAALGCLVKDYFPEPVTVSWNSGALTSGVHTFPAVLQSSGLYSLSSVVTVPSSSLGTQTYICNVNHKPSNTKVDKKVEPKSCDKTHTCPPCPAPELLGGPSVFLFPPKPKDTLMISRTPEVTCVVVDVSHEDPEVKFNWYVDGVEVHNAKTKPREEQYQSTYRVVSVLTVLHQDWLNGKEYKCKVSNKALPAPIEKTISKAKGQPREPQVYTLPPSRKELTKNQVSLTCLVKGFYPSDIAVEWESNGQPENNYKTTPPVLKSDGSFFLYSKLTVDKSRWQQGNVFSCSVMHEALHNHYTQKSLSLSPG light 2: DIQMTQSPSSLSASVGDRVTITCRASQDVSTAVAWYQRKPGKAPKLLIYSASFLYSGVPSRFSGSGSGTDFTLTISSLQPEDFATYYCQQSYTTPPTFGQGTKVEIKRTVAAPSVFIFPPSDEQLKSGTASVVCLLNNFYPREAKVQWKVDNALQSGNSQESVTEQDSKDSTYSLSSTLTLSKADYEKHKVYACEVTHQGLSSPVTKSFNRGEC |
